Experimental findings from PMC2362091, “Expression of V1A and GRP receptors leads to cellular transformation and increased sensitivity to substance-P analogue-induced growth inhibition” (British Journal of Cancer, 2005) are described below.

This assay deals with arginine vasopressin (AVP) (Homo sapiens), P01185. As to the kind of experiment: competition.
arginine vasopressin (AVP) (Homo sapiens), P01185, sequence (P01185 whole entry, looked up): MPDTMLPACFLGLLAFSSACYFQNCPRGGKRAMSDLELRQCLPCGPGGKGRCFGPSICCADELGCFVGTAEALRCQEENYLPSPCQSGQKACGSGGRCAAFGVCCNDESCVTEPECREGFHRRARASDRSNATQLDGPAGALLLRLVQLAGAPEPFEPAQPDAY

B1: V1A receptor, P37288 (protein)
chain: MRLSAGPDAGPSGNSSPWWPLATGAGNTSREAEALGEGNGPPRDVRNEELAKLEIAVLAVTFAVAVLGNSSVLLALHRTPRKTSRMHLFIRHLSLADLAVAFFQVLPQMCWDITYRFRGPDWLCRVVKHLQVFGMFASAYMLVVMTADRYIAVCHPLKTLQQPARRSRLMIAAAWVLSFVLSTPQYFVFSMIEVNNVTKARDCWATFIQPWGSRAYVTWMTGGIFVAPVVILGTCYGFICYNIWCNVRGKTASRQSKGAEQAGVAFQKGFLLAPCVSSVKSISRAKIRTVKMTFVIVTAYIVCWAPFFIIQMWSVWDPMSVWTESENPTITITALLGSLNSCCNPWIYMFFSGHLLQDCVQSFPCCQNMKEKFNKEDTDSMSRRQTFYSNNRSPTNSTGMWKDSPKSSKSIKFIPVST
Regarding B1, the dissociation constant Kd (in general, the free concentration of one partner at which half of the binding sites on the other are occupied at equilibrium, for simple one-to-one binding) is 2.98 nM.
